The values that follow come from publication PMC7521798 (Molecular Biology of the Cell, 2020).

The target in the test is GFP-IQGAP1 ∆GRD (1004–1237 aa deleted) (UniProt P46940 1-1657, 1004–1237 aa deleted). Briefly: co-IP.

B1: R-ras (natural protein, mouse (endogenous in NIH-3T3 and MEFs), UniProt P10833 1-218, looked up)
chain: MSSGAASGTGRGRPRGGGPGPRDPPPGETHKLVVVGGGGVGKSALTIQFIQSYFVSDYDPTIEDSYTKICTVDGIPARLDILDTAGQEEFGAMREQYMRAGNGFLLVFAINDRQSFNEVGKLFTQILRVKDRDDFPIVLVGNKADLENQRQVLRSEASSFSASHHMTYFEASAKLRLNVDEAFEQLVRAVRKYQEQELPPSPPSAPRKKDGGCPCVLL
As for B1, the “fold less association with R-ras than IQGAP1, IQGAP1 ∆IQ or IQGAP1 ∆WW” value stood at 5 fold.
